Measured values taken from patent publication US20180071403A1 (Daiichi Sankyo, published 2018).

How the values were obtained:
human B7-H3 variant 1 [1] = biological target: T1, human B7-H3 variant 1 (human, UniProt Q5ZPR3 27-534); test: cell-based or functional assay
T1 sequence: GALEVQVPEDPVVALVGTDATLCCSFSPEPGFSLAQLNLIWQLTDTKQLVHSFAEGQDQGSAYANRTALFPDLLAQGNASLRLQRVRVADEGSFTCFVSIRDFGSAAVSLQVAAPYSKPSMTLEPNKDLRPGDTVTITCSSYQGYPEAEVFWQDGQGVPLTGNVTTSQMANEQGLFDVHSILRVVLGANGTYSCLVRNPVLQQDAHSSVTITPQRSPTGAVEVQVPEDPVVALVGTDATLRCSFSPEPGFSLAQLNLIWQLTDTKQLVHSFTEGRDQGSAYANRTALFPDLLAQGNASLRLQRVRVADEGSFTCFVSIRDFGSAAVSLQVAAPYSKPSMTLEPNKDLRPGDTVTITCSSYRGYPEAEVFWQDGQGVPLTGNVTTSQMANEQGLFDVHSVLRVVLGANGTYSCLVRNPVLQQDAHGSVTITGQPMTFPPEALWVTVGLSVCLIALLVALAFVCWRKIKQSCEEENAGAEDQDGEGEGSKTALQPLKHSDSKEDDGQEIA

CD30 = biological target: T2, CD30 (UniProt P28908 19-595, limits assumed); test: cell-based or functional assay
T2 sequence (looked up): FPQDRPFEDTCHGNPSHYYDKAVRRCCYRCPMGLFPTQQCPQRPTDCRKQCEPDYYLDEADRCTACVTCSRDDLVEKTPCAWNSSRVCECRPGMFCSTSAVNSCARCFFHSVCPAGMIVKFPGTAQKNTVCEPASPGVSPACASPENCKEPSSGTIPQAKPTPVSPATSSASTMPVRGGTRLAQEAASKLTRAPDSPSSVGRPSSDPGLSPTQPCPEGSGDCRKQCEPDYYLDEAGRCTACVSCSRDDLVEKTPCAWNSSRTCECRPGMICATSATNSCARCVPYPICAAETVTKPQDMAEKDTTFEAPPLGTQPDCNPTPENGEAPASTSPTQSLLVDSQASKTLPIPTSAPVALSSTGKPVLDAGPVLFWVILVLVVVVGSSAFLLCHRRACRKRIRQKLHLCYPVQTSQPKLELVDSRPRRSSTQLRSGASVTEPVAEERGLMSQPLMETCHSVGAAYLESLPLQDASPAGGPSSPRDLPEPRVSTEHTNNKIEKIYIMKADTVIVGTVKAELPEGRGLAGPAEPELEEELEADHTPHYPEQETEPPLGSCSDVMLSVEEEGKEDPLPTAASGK

CD33 = CD33 (UniProt P20138 18-364, limits assumed); test: cell-based or functional assay
human B7-H3 variant 1 [2] = biological target: T1, human B7-H3 variant 1; test: flow cytometry, M30 at 10 µg/mL on CCRF-CEM clones transfected with B7-H3 variant 1, fluorescein-labelled anti-mouse IgG
Procedure: Flow cytometry was used for confirming B7-H3 expression in each recovered clone. Specifically, each recovered clone was washed twice with PBS containing 5% FBS, thereafter suspended by the addition of PBS containing 5% FBS and 10 μg/mL M30, and left standing at 4° C. for 30 minutes. […] The clone was washed twice with PBS containing 5% FBS, thereafter resuspended in PBS containing 5% FBS, and detected by using a flow cytometer (FC500: Beckman Coulter, Inc.).

CD33, sequence (P20138 18-364 limits assumed): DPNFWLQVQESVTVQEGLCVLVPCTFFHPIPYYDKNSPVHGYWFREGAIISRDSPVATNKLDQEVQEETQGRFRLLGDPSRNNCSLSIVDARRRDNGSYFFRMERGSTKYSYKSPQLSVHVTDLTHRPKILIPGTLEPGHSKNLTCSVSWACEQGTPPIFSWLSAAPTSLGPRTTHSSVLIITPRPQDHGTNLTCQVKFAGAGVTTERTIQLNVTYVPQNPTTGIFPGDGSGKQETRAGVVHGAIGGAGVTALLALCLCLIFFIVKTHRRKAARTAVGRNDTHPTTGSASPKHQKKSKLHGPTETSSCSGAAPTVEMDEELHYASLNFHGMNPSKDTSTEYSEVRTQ

Row | Binder | IC50, anticellular effect (cell growth inhibition, CellTiter-Glo) on SR cells (CD30) | further results
1 | Antibody-drug conjugate (6) (antibody, human IgG1, kappa, V domains shown, drug-linker -(Succinimid-3-yl-N)-CH2CH2CH2CH2CH2-C(=O)-DGGFG-NH-CH2CH2CH2-C(=O)-(NH-DX) (exatecan) bound by thioether at reduced hinge disulfide cysteines (positions not given); average 6.2 drug molecules per antibody) VH: QVQLVQSGAEVKKPGSSVKVSCKASGYTFTNYVMHWVRQAPGQGLEWMGYINPYNDDVKYNEKFKGRVTITADESTSTAYMELSSLRSEDTAVYYCARWGYYGSPLYYFDYWGQGTLVTVSS VL: EIVLTQSPATLSLSPGERATLSCRASSRLIYMHWYQQKPGQAPRPLIYATSNLASGIPARFSGSGSGTDFTLTISSLEPEDFAVYYCQQWNSNPPTFGQGTKVEIKR |  | IC50, anticellular effect (cell growth inhibition, CellTiter-Glo) on CEM_V1_3.1_2 cells (human B7-H3 variant 1 [1]): < 0.1 nM
2 | Antibody-drug conjugate (23) (antibody, human IgG1, kappa, V domains shown, drug-linker -(Succinimid-3-yl-N)-CH2CH2CH2CH2CH2-C(=O)-DGGFG-(NH-DX) (exatecan) bound by thioether at reduced hinge disulfide cysteines (positions not given); average 6.6 drug molecules per antibody) VH: QVQLVQSGAEVKKPGSSVKVSCKASGYTFTNYVMHWVRQAPGQGLEWMGYINPYNDDVKYNEKFKGRVTITADESTSTAYMELSSLRSEDTAVYYCARWGYYGSPLYYFDYWGQGTLVTVSS VL: EIVLTQSPATLSLSPGERATLSCRASSRLIYMHWYQQKPGQAPRPLIYATSNLASGIPARFSGSGSGTDFTLTISSLEPEDFAVYYCQQWNSNPPTFGQGTKVEIKR |  | IC50, anticellular effect (cell growth inhibition, CellTiter-Glo) on CEM_V1_3.1_2 cells (human B7-H3 variant 1 [1]): < 0.1 nM
3 | Antibody-drug conjugate (7) (antibody, V domains shown, drug-linker -(Succinimid-3-yl-N)-CH2CH2CH2CH2CH2-C(=O)-DGGFG-NH-CH2CH2CH2-C(=O)-(NH-DX) (exatecan) bound by thioether at reduced hinge disulfide cysteines (positions not given); average 4.6 drug molecules per antibody) VH: QIQLQQSGPEVVKPGASVKISCKASGYTFTDYYITWVKQKPGQGLEWIGWIYPGSGNTKYNEKFKGKATLTVDTSSSTAFMQLSSLTSEDTAVYFCANYGNYWFAYWGQGTQVTVSA VL: DIVLTQSPASLAVSLGQRATISCKASQSVDFDGDSYMNWYQQKPGQPPKVLIYAASNLESGIPARFSGSGSGTDFTLNIHPVEEEDAATYYCQQSNQDPWTFGGGTKLEIKR | < 0.01 nM | 
4 | Antibody-drug conjugate (24) (antibody, V domains shown, drug-linker -(Succinimid-3-yl-N)-CH2CH2CH2CH2CH2-C(=O)-DGGFG-(NH-DX) (exatecan) bound by thioether at reduced hinge disulfide cysteines (positions not given); average 2.9 drug molecules per antibody) VH: QIQLQQSGPEVVKPGASVKISCKASGYTFTDYYITWVKQKPGQGLEWIGWIYPGSGNTKYNEKFKGKATLTVDTSSSTAFMQLSSLTSEDTAVYFCANYGNYWFAYWGQGTQVTVSA VL: DIVLTQSPASLAVSLGQRATISCKASQSVDFDGDSYMNWYQQKPGQPPKVLIYAASNLESGIPARFSGSGSGTDFTLNIHPVEEEDAATYYCQQSNQDPWTFGGGTKLEIKR | < 0.01 nM | 
5 | Antibody-drug conjugate (25) (antibody, V domains shown, drug-linker -(Succinimid-3-yl-N)-CH2CH2CH2CH2CH2-C(=O)-DGGFG-(NH-DX) (exatecan) bound by thioether at reduced hinge disulfide cysteines (positions not given); average 4.8 drug molecules per antibody) VH: QIQLQQSGPEVVKPGASVKISCKASGYTFTDYYITWVKQKPGQGLEWIGWIYPGSGNTKYNEKFKGKATLTVDTSSSTAFMQLSSLTSEDTAVYFCANYGNYWFAYWGQGTQVTVSA VL: DIVLTQSPASLAVSLGQRATISCKASQSVDFDGDSYMNWYQQKPGQPPKVLIYAASNLESGIPARFSGSGSGTDFTLNIHPVEEEDAATYYCQQSNQDPWTFGGGTKLEIKR | < 0.01 nM | 
6 | Antibody-drug conjugate (8) (antibody, V domains shown, drug-linker -(Succinimid-3-yl-N)-CH2CH2CH2CH2CH2-C(=O)-DGGFG-NH-CH2CH2CH2-C(=O)-(NH-DX) (exatecan) bound by thioether at reduced hinge disulfide cysteines (positions not given); average 7.9 drug molecules per antibody) VH: QIQLQQSGPEVVKPGASVKISCKASGYTFTDYYITWVKQKPGQGLEWIGWIYPGSGNTKYNEKFKGKATLTVDTSSSTAFMQLSSLTSEDTAVYFCANYGNYWFAYWGQGTQVTVSA VL: DIVLTQSPASLAVSLGQRATISCKASQSVDFDGDSYMNWYQQKPGQPPKVLIYAASNLESGIPARFSGSGSGTDFTLNIHPVEEEDAATYYCQQSNQDPWTFGGGTKLEIKR | < 0.01 nM | 
7 | Antibody-drug conjugate (10) (antibody, V domains shown, drug-linker -(Succinimid-3-yl-N)-CH2CH2CH2CH2CH2-C(=O)-DGGFG-NH-CH2CH2CH2-C(=O)-(NH-DX) (exatecan) bound by thioether at reduced hinge disulfide cysteines (positions not given); average 6.6 drug molecules per antibody) VH: EVQLVQSGAEVKKPGSSVKVSCKASGYTITDSNIHWVRQAPGQSLEWIGYIYPYNGGTDYNQKFKNRATLTVDNPTNTAYMELSSLRSEDTAFYYCVNGNPWLAYWGQGTLVTVSS VL: DIQLTQSPSTLSASVGDRVTITCRASQSLDNYGIRFLTWFQQKPGKAPKLLMYAASNQGSGVPSRFSGSGSGTEFTLTISSLQPDDFATYYCQQTKEVPWSFGQGTKVEVKR |  | IC50, cytotoxic effect (cell growth inhibition, CellTiter-Glo) on HL-60 cells (CD33): < 1 nM
8 | M30 antibody (antibody, mouse IgG2a, kappa, V domains shown, Mouse monoclonal anti-B7-H3 antibody from hybridoma M30) VH: EVQLQQSGPELVKPGASVKMSCKASGYTFTNYVMHWVKQKPGQGLEWIGYINPYNDDVKYNEKFKGKATQTSDKSSSTAYMELSSLTSEDSAVYYCARWGYYGSPLYYFDYWGQGTTLTVSS VL: QIVLSQSPTILSASPGEKVTMTCRASSRLIYMHWYQQKPGSSPKPWIYATSNLASGVPARFSGSGSGTSYSLTISRVEAEDAATYYCQQWNSNPPTFGTGTKLELKR |  | binding result (human B7-H3 variant 1 [2]): binds
